The values below come from the RNAGym collection of RNA variant scans (doi:10.7554/elife.80360).

The labels stand for the following.
B1: CPEB3 Ribozyme (parent)
chain: GGGGGCCACAGCAGAAGCGUUCACGUCGCGGCCCCUGUCAGAUUCUGGUGAAUCUGCGAAUUCUGCUGU

In this series the parent is B1. The series can be described thus: self-cleavage, relative activity (ratio to wild type); higher = more cleavage; co-transcriptional.
In the case of GGGGGCAACAGCAGAAGCGUUCACGUCGCGGCCCCUGUUAGAUUCUGGUGAAUCUGCGAAUUCUGCUGU [C7A C39U], the self-cleavage is 0.348.
With GGGGGCAACAGCAGAAGCGUUCACGUCGCGGCCCCUGUAAGAUUCUGGUGAAUCUGCGAAUUCUGCUGU [C7A C39A], the self-cleavage came to 0.186.
Then GGGGGCAACAGCAGAAGCGUUCACGUCGCGGCCCCUGUCAGAUUCUGGUGAAUCUGCGAAUUCUGCUUU [C7A G68U], with 0.937.
Regarding GGGGGCAACAGCAGAAGCGUUCACGUCGCGGCCCCUGUCAGAUUCUGGUGAAUCUGCGAAUUCUGCUAU [C7A G68A], the self-cleavage turned out to be 0.984.
Then GGGGGCAACAGCAGAAGCGUUCACGUCGCGGCCCCUGUCAGAUUCUGGUGAAUUUGCGAAUUCUGCUGU [C7A C54U], with 0.614.
Then GGGGGCAACAGCAGAAGCGUUCACGUCGCGGCCCCUGUCAGAUUCUGGUGAAUAUGCGAAUUCUGCUGU [C7A C54A], with 0.318.
Then GGGGGCAACAGCAGAAGCGUUCACGCCGCGGCCCCUGUCAGAUUCUGGUGAAUCUGCGAAUUCUGCUGU [C7A U26C], with 0.357; and GGGGGCAACAGCAGAAGCGUUCACGGCGCGGCCCCUGUCAGAUUCUGGUGAAUCUGCGAAUUCUGCUGU [C7A U26G], with 0.274; and GGGGGCAACAGCAGAAGCGUUCACGUCGCGGGCCCUGUCAGAUUCUGGUGAAUCUGCGAAUUCUGCUGU [C7A C32G], with 0.126.
Turning to GGGGGCAACAGCAGAAGCGUUCACGUCGCGGUCCCUGUCAGAUUCUGGUGAAUCUGCGAAUUCUGCUGU [C7A C32U], the self-cleavage turned out to be 0.359.
On to GGGGGCAACAGCAGAAACGUUCACGUCGCGGCCCCUGUCAGAUUCUGGUGAAUCUGCGAAUUCUGCUGU [C7A G17A], for which the self-cleavage came out at 0.0679.
The same measure for GGGGGCAACAGCAGAACCGUUCACGUCGCGGCCCCUGUCAGAUUCUGGUGAAUCUGCGAAUUCUGCUGU [C7A G17C]: 0.14; for GGGGGCAACAGCAGAAUCGUUCACGUCGCGGCCCCUGUCAGAUUCUGGUGAAUCUGCGAAUUCUGCUGU [C7A G17U]: 0.126.
The same measure for GGGGGCAACAGCAGAAGCGUUCACGUCGCGGCCCUUGUCAGAUUCUGGUGAAUCUGCGAAUUCUGCUGU [C7A C35U]: 0.222; for GGGGGCAACAGCAGAAGCGUUCACGUCGCGGCCCGUGUCAGAUUCUGGUGAAUCUGCGAAUUCUGCUGU [C7A C35G]: 0.156; for GGGGGCAACAACAGAAGCGUUCACGUCGCGGCCCCUGUCAGAUUCUGGUGAAUCUGCGAAUUCUGCUGU [C7A G11A]: 0.401.
Then GGGGGCAACAUCAGAAGCGUUCACGUCGCGGCCCCUGUCAGAUUCUGGUGAAUCUGCGAAUUCUGCUGU [C7A G11U], with 0.315; and GGGGGCAACAGCAGAAGCGUUCACGUCGCGGCCCCUGUCAGAUUCUGGUGAAUCUGAGAAUUCUGCUGU [C7A C57A], with 0.173; and GGGGGCAACAGCAGAAGCGUUCACGUCGCGGCCCCUGUCAGAUUCUGGUGAAUCUGUGAAUUCUGCUGU [C7A C57U], with 0.172.
As for GGGGGCAACAGCAGAAGCGUUCACGUCGCGGCCCCUGUCAGAUUCUGGUAAAUCUGCGAAUUCUGCUGU [C7A G50A], the self-cleavage amounted to 0.617.
Then GGGGGCAACAGCAGAAGCGUUCACGUCGCGGCCCCUGUCAGAUUCUGGUUAAUCUGCGAAUUCUGCUGU [C7A G50U], with 0.54.
For the variant GGGGGCAACAGCAGAAGCGUUCACGUCGCGGCCCCUGUCACAUUCUGGUGAAUCUGCGAAUUCUGCUGU [C7A G41C], the self-cleavage came to 0.146.
The same measure for GGGGGCAACAGCAGAAGCGUUCACUUCGCGGCCCCUGUCAGAUUCUGGUGAAUCUGCGAAUUCUGCUGU [C7A G25U]: 0.111; for GGGGGCAACAGCAGAAGCGUUCACAUCGCGGCCCCUGUCAGAUUCUGGUGAAUCUGCGAAUUCUGCUGU [C7A G25A]: 0.163.
The same measure for GGGGGCAACAGCAGAAGCGUUCACCUCGCGGCCCCUGUCAGAUUCUGGUGAAUCUGCGAAUUCUGCUGU [C7A G25C]: 0.144; for GGGGGCAACAGCAGAAGCGUUCACGUCGCGGCCCCUGUCAGAUUCUGGUGAAUCUGCGAAUUUUGCUGU [C7A C63U]: 0.515.
Then GGGGGCAACAGCAGAAGCGUUCAGGUCGCGGCCCCUGUCAGAUUCUGGUGAAUCUGCGAAUUCUGCUGU [C7A C24G], with 0.0158; and GGGGGCAACAGCAGAAGCGUUCAAGUCGCGGCCCCUGUCAGAUUCUGGUGAAUCUGCGAAUUCUGCUGU [C7A C24A], with 0.161.
Regarding GGGGGCAACAGCAGAAGCGUUCAUGUCGCGGCCCCUGUCAGAUUCUGGUGAAUCUGCGAAUUCUGCUGU [C7A C24U], the self-cleavage came to 0.192.
GGGGGCAACAGCAGAAGCGUUCACGUCGCCGCCCCUGUCAGAUUCUGGUGAAUCUGCGAAUUCUGCUGU [C7A G30C]: the self-cleavage amounted to 0.661.
GGGGGCAACAGCAGAAGCGUUCACGUCGCUGCCCCUGUCAGAUUCUGGUGAAUCUGCGAAUUCUGCUGU [C7A G30U]: the self-cleavage amounted to 0.9.
On to GGGGGCAACAGCAGAAGCGUUCACGUCGCAGCCCCUGUCAGAUUCUGGUGAAUCUGCGAAUUCUGCUGU [C7A G30A], for which the self-cleavage was determined as 0.826.
The same measure for GGGGGCAACAGCAGAAGCGUUCACGUCGCGGCCCCUGUCAGAUUCUGGUGAAUCUGCGAAUUCUCCUGU [C7A G65C]: 0.314; for GGGGGCAACAGCAGAAGCGUUCACGUCGCGGCCCCUGUCAGAUUCUGGUGAAUCUGCGAAUUCUUCUGU [C7A G65U]: 0.198; for GGGGGCAACAGCAGAAGCGUUCACGUCGCGGCCCCUGUCAGAUUCUGGUGAAUCUGCGAAUUCUACUGU [C7A G65A]: 0.496.
The same measure for GGGGGCAACAGCAGAAGCGUUGACGUCGCGGCCCCUGUCAGAUUCUGGUGAAUCUGCGAAUUCUGCUGU [C7A C22G]: 0.0999; for GGGGGCAACAGCAGAAGCGUUCACGUCGCGGCCCCUGUCAGAUUCUGGUGAAUCUGCGAAUUCUGAUGU [C7A C66A]: 0.354; for GGGGGCAACAGCAGAAGCGUUCACGUCGCGGCCCCUGUCAGAUUCUGGUGAAUCUGCGAAUUCUGGUGU [C7A C66G]: 0.42.
Then GGGGGCAACAGCAGAAGCGUUCACGUCGCGGCCCCUGUCAGAUUCUGGUGAAUCUGCGAAUUCUGUUGU [C7A C66U], with 0.697.
